The results in this text go back to paper PMC9307952, “Lipoate protein ligase B primarily recognizes the C8-phosphopantetheine arm of its donor substrate and weakly binds the acyl carrier protein” (The Journal of Biological Chemistry, 2022).

Substrate in the data set: CCCCCCCC(=O)SCCNC(=O)CCNC(=O)[C@H](O)C(C)(C)COP(=O)(O)OP(=O)(O)OC[C@H]1O[C@@H](n2cnc3c(N)ncnc32)[C@H](O)[C@@H]1OP(=O)(O)O
The data set is described as follows: purified protein. The settings on record: 5 μM LipB, 25 μM E. coli GcvH as acceptor, 0-160 μM C8-CoA, 50 mM Tris-HCl, 200 mM NaCl, pH 8.0, 30 °C.

B1: E. coli LipB (EcLipB) (Escherichia coli K-12) (protein)
chain: MYQDKILVRQLGLQPYEPISQAMHEFTDTRDDSTLDEIWLVEHYPVFTQGQAGKAEHILMPGDIPVIQSDRGGQVTYHGPGQQVMYVLLNLKRRKLGVRELVTLLEQTVVNTLAELGIEAHPRADAPGVYVGEKKICSLGLRIRRGCSFHGLALNVNMDLSPFLRINPCGYAGMEMAKISQWKPEATTNNIAPRLLENILALLNNPDFEYITA
Consider B1, for which the Km is 12.24 ± 0.79 µM, the Vmax was 1.08 µmol/min and the kcat stood at 0.00367 s⁻¹.

What is called Km is the concentration of substrate that gives half-maximal velocity. Usually Vmax stands for the rate approached at saturating substrate. For orientation: kcat means the number of substrate molecules converted per active site and unit of time at saturation.
